# Results as given in patent US20240252795A1, “INGESTIBLE DEVICE FOR DELIVERY OF THERAPEUTIC AGENT TO THE GASTROINTESTINAL TRACT” (BIORA THERAPEUTICS, INC., priority 2018, published 2024).
# “And” between values parts separate entries of the source, which are not always exact repeats. Identical values can stand only once. Like-named read-outs stand apart in the source and are kept apart here.
# How the values were obtained:
# blood glucose = assay: Euglycemic clamp procedure: blood glucose and dextrose infusion rate after NOVOLIN R; format: in vivo, swine; conditions: for mean blood glucose level: euglycemic clamp
# Protocol: (§1) Blood samples were kept on wet ice until centrifugation and separation of plasma. […] Glucose was monitored every five (5) minutes during the study by portable glucose analyzer (StatStrip (SS) hospital glucose monitoring system (Nova Biomedical, Waltham, MA)). At each time point, approximate 0.1 mL of blood was drawn and immediately placed on a glucose monitoring test strip, and the whole blood glucose concentration was measured by the SS in triplicate.
# A euglycemic clamp procedure (ECP) was employed to compare pharmacokinetics and pharmacodynamics of regular human Insulin (NOVOLIN® R) delivered subcutaneously (SC) in the neck versus intra-jejunally (IJ) by the jet delivery device in the small intestine. ECP was used to quantify the amount of glucose required to maintain normoglycemia after exogenous bolus of insulin. […] The animals were anesthetized for the entire ECP.
# [1] = PK of regular human insulin (NOVOLIN R) after SC or intra-jejunal jet delivery, blood insulin levels; format: in vivo, swine; conditions: for Cmax / Tmax: IJ administration by jet delivery device, blood insulin
# Protocol: A total of 18 Yorkshire female swine in good health and weighing 60-70 kg each were included in this study. Swine were divided into two groups with 9 animals per group. […] A sham surgical laparotomy was performed. […] The jet delivery device was configured with the single nozzle in an axial orientation.
# Swine were divided into two groups with 9 animals per group. […] In all 18 animals, a laparotomy procedure was performed to expose the abdominal cavity. Animals remained under anesthesia during the entire procedure for the PK/PD study.
# For the laparotomy in group 02, a small segment of the jejunal mucosa and serosa was exposed by midline laparotomy and the jet delivery device was inserted through antimesenteric incision.
# as §1
# The animals were anesthetized for the entire ECP.
# [2] = Non-reducing SDS-PAGE protein profile of jet-dispensed adalimumab (drug structure); format: physicochemical
# From the text: The purpose of this study was to evaluate the effects that nozzle geometry and delivery pressure have on drug structure when the drug is dispensed from a jet delivery device using different delivery pressures and nozzle sizes. Structural changes in the jet-delivered drug could potentially result in compromised functioning of the drug in vitro.
# The drug (adalimumab drug substance (DS)) was loaded into the simulated capsule jet delivery device and ejected using different pressures and nozzle geometries.
# The resulting protein concentrations were obtained using an extinction coefficient of 1.4 and Gen5 version 3.03.14 program. The samples were then diluted and the protein profiles were analyzed using non-reducing SDS-PAGE. Protein banding patterns of the dispensed samples were compared to that of the unmanipulated drug and the drug artificially damaged (enzymatically degraded) via the papain in a commercial Fab fragmentation kit (Pierce™ Fab Preparation Kit).
# For gel analysis, protein was mixed with non-reducing sample buffer. Samples were not heated. 5 μg of samples and controls were loaded per lane of a SDS-PAGE gel (4% Acrylamide-Bis stacking, 12% resolving; see Table 26). The gel was electrophoresed at 195 V and stained in R-250 Coomassie Blue dye.
# [3] = Adalimumab plasma PK after ID administration via 4-nozzle jet delivery device; format: in vivo, female Yorkshire pigs (Sus scrofa domesticus); conditions: for AUC0-10 (±SEM) / Tmax: 40 mg, N=4, plasma; for AUC0-10 Corrected for Dose (±SEM): N=4; for Bioavailability over IV (±SEM): vs Example 5 IV control; for Bioavailability over IV (±SEM) / Bioavailability over SC (±SEM): AUC corrected for dose used; for Bioavailability over SC (±SEM): vs Example 5 SC control
# Protocol: A total of 9 healthy female Yorkshire pigs (Sus scrofa domesticus) having a body weight of 24-30 kg were used in this study. […] Each dose group received test article via intraduodenal (ID) administration. The study design is shown below in Table 21.
# Animals were housed two per cage and fasted for a minimum of 12 hours prior to dosing. Food was returned at 4 hours post-dose. Water was supplied ad libitum. The dosing was as follows: Dose day 1: group 1 (n=2), and group 2 (n=3); Dose day 2: group 2 (n=3), and group 1 (n=2).
# Intraduodenal (ID) administration was performed as follows.
# (§2) Each blood sample was collected from the pig jugular vein, or other suitable vessel via direct venipuncture, placed into a chilled tube containing K2-EDTA as the anticoagulant, and inverted several times to mix. Blood samples were kept on wet ice until centrifugation. […] Plasma was collected into pre-labeled polypropylene tubes and placed in a freezer set to maintain −60 to −80° C. prior to analysis.
# (§3) All plasma samples were diluted by 1:100 dilution. Diluted samples were processed in duplicates and the mean Optical Density (O.D.) was measured using a SpectraMax plate reader is and utilizing SoftMax Pro software for analysis. The Lower Limit of Quantification (LLOQ) was calculated by adding 10× the standard deviation value of the blanks O.D. to the average of the blank standard O.D. values. […] The area under the concentration curve (AUC) was calculated with the trapezoidal rules.
# The PK results were compared to a subset of data from Example 5. The bioavailability was determined by comparison with Example 5 control arms (SC and IV administration).
# [4] = Adalimumab plasma PK after ID administration via endoscopic injection needle; format: in vivo, female Yorkshire pigs (Sus scrofa domesticus); conditions: 5 pigs in two studies
# Protocol: A total of 5 healthy female Yorkshire pigs (Sus scrofa domesticus) having a body weight of ˜25-40 kg were used in these studies, 3 in a first study and 2 in a second study. Each animal received test article via intraduodenal (ID) administration via an injection needle. The study design is shown below in Table 34.
# Animals were housed one per cage and fasted for a minimum of 12 hours prior to dosing. Food was returned at 4 hours post-dose. Water was supplied ad libitum.
# Intraduodenal (ID) administration was performed as follows. […] Once it was confirmed that the endoscopic injection needle was placed in the correct region, approximately 0.5 mL of saline was injected within the lamina propria of the mucosa to create a small bleb in the mucosa. The formulation was then injected into the bleb and flushed with approximately 0.8 mL of saline. […]
# as §3, with “reader” for “reader is”
# TNFα = TNFα (Homo sapiens, UniProt P01375); assay: LOCI competitive inhibition assay of adalimumab binding to TNFα after jet dispensing; conditions: delivery pressures up to 300 psi, nozzle diameter down to 0.35 mm
# Sequence of TNFα (P01375 77-233 limits assumed): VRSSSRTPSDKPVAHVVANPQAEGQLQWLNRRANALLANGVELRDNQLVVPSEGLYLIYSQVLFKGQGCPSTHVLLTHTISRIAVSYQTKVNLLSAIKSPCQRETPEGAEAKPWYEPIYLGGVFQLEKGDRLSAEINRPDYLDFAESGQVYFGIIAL
# Protocol: The drug (adalimumab) was loaded into the ingestible device and fired through a nozzle with varying diameters at various pressure conditions.
# FIGS. 57A-57B illustrate the general principle of the assay.
# Drug binding was detected using Luminescent Oxygen Channeling (LOCI™)—a competitive binding assay. Signal was detected by comparing to a non-drug carrier control and an artificially damaged drug using a commercial FAB fragmentation kit.
# Drug function was determined through a competition binding assay comparing drug binding function for drug dispensed via standard delivery mechanism and drug delivered via the ingestible device with various pressures.
# [5] = Adalimumab plasma PK after ID (2-nozzle jet delivery device), SC or IV administration; format: in vivo, female Yorkshire pigs (Sus scrofa domesticus)
# Protocol: A total of 21 healthy female Yorkshire pigs (Sus scrofa domesticus) having a body weight of 25-30 kg were used in this study. Five (N=5) were used in each of dose Groups 1-3 (intraduodenal (ID) administration via an endoscopically placed ingestible device), and three (N=3) were used in each of dose Group 4 (SC administration) and dose Group 5 (IV administration). The study design is shown below in Table 16.
# Animals were housed two per cage and fasted for a minimum of 12 hours prior to dosing. Food was returned at 4 hours post-dose. Water was supplied ad libitum. The dosing was as follows: Dose day 1: group 1 (n=3), and group 3 (n=2); Dose day 2: group 2 (n=3), and group 1 (n=2); Dose day 3: group 3 (n=3), and group 2 (n=2); Dose day 4: groups 4 (n=3), and group 5 (n=3). Following the 240-hour post-dose blood collection the animal was euthanized via euthanasia solution IV bolus dose.
# For subcutaneous (SC) administration, animals were placed in dorsal recumbence and the SC injection site asceptically prepared with alcohol. The test article was administered as an SC injection into a “skin tent” on the belly of the pig.
# as §2
# All plasma samples were diluted by 1:100 dilution. Plasma samples were reanalyzed with a 1:1000 dilution from animals 6287, 6289, 6332, 6334, 6336, 6149, 6335, and 6337. Plasma samples close to the lower limit of quantification (LLOQ) were repeated with a 1:5 dilution from animals 6138 and 6137. […] Therefore, the data from animal 6138 and 6137 were not included in the final PK analysis. […] The area under the concentration curve (AUC) was calculated with the trapezoidal rules.
# [6] = pig, in vivo
# [7] = SC administration, swine, group average
# [8] = SC administration, swine, individual animals
# [9] = Group 1: ID, 4 Nozzle device 320 PSIG
# [10] = Group 2: ID, 4 Nozzle device 350 PSIG
# [11] = Group 1: ID, 2 nozzle jet delivery device 220 PSIG, 40 mg, N=2, plasma
# [12] = Group 3: ID, 2 Nozzle device 320 PSIG, N=5, data from Example 5
# [13] = Group 3: ID, 2 Nozzle device 320 PSIG, data from Example 5
# [14] = Group 3: ID, 2 nozzle jet delivery device 320 PSIG, 40 mg, N=5, plasma
# [15] = Group 4: SC control, N=3, data from Example 5
# [16] = Group 4: SC control, data from Example 5
# [17] = Group 5: IV control, N=3, data from Example 5
substance,measurement,setting,value
NOVOLIN® R: regular human insulin (NOVOLIN® R),mean blood glucose level,blood glucose; IJ administration group,89.6 mg/dL
same,mean blood glucose level,blood glucose; SC administration group,83.5 mg/dL
same,"mean dextrose infusion rate, IJ versus SC group",blood glucose; from 75 minutes to 420 minutes post-administration,higher in the SC administration group
same,Cmax,[1]; Average of 8 animals,77.40 uIU/mL
same,Tmax,[1]; Average of 8 animals,55.63 min
same,Cmax,[1]; individual animal,40.93 uIU/mL and 96.77 uIU/mL and 5.03 uIU/mL and 7.96 uIU/mL and 48.77 uIU/mL and 85.38 uIU/mL and 207.96 uIU/mL and 126.39 uIU/mL
same,Tmax,[1]; individual animal,20 min and 50 min and 90 min (2×) and 40 min (3×)
same,blood insulin level in animal 18P18,"[1]; SC administration group, compared with rest of group",significantly higher than the rest of the animals in the group
same,"Cmax of blood insulin, Average",[1]; [7],202.94 uIU/mL
same,"Tmax of blood insulin, Average",[1]; [7],1.452 h
same,Cmax of blood insulin,[1]; [8],451.00 uIU/mL and 60.74 uIU/mL and 354.00 uIU/mL and 356.60 uIU/mL and 65.71 uIU/mL and 59.18 uIU/mL and 73.34 uIU/mL
same,Tmax of blood insulin,[1]; [8],50 min (2×) and 180 min and 105 min and 30 min and 120 min
same,"maximum plasma concentration Cmax, SC group compared with IJ group",[1]; SC versus IJ administration,higher than that of the IJ administration group
same,time to maximum plasma concentration (Tmax),"[1]; jejunum (IJ) administration via jet delivery device, swine, group mean",0.9272 h
adalimumab,"protein banding pattern, non-reducing SDS-PAGE","[2]; 5 μg per lane, jet-delivered samples versus unmanipulated drug and papain-degraded controls",same banding pattern as the unmanipulated drug
same,structural changes after dispensing,[2]; dispensing pressures and nozzle sizes employed,No structural changes were evident
same,AUC0-10 (±SEM),[3]; [9],23.831 µg·days/mL
same,Tmax,[3]; [9],24 h
same,AUC0-10 Corrected for Dose (±SEM),[3]; [9],23.997 µg·days/mL
same,Bioavailability over IV (±SEM),[3]; [9],19.560
same,Bioavailability over SC (±SEM),[3]; [9],26.120
same,AUC0-10 (±SEM),[3]; [10],14.603 µg·days/mL
same,Tmax,[3]; [10],24 h
same,AUC0-10 Corrected for Dose (±SEM),[3]; [10],15.171 µg·days/mL
same,Bioavailability over IV (±SEM),[3]; [10],12.367
same,Bioavailability over SC (±SEM),[3]; [10],16.513
same,quantifiable levels in plasma,[4],one animal from the first study and one animal from the second study had quantifiable levels
same,ability of the drug to bind to the target TNFα after jet delivery,TNFα,did not significantly inhibit the ability of the drug to bind to the target TNFα
same,Cmax,[5]; [11],570 ng/mL
same,Tmax,[5]; [11],24 h
same,Tmax,"[5]; Group 2: ID, 2 nozzle jet delivery device 270 PSIG, 40 mg, N=4, plasma",24 h
same,AUC0-10 (±SEM),[5]; [12],32.31 µg·days/mL
same,AUC0-10 Corrected for Dose (±SEM),[5]; [12],32.25 µg·days/mL
same,Cmax,[5]; [12],5000 ng/mL
same,Tmax,[5]; [12],24 h
same,Bioavailability over IV (±SEM),[5]; [13],26.25
same,Bioavailability over SC (±SEM),[5]; [13],35.38
same,Cmax,[5]; [14],5000 ng/mL
same,Tmax,[5]; [14],24 h
same,AUC0-10 (±SEM),[5]; [15],91.87 µg·days/mL
same,Tmax,[5]; [15],140 h
same,Bioavailability over IV (±SEM),[5]; [16],74.89
same,Bioavailability over SC (±SEM),[5]; [16],100
same,Tmax,"[5]; Group 4: SC, 40 mg, N=3, plasma",140 h
same,Bioavailability over IV,[5]; Group 5: IV,100%
same,AUC0-10 (±SEM),[5]; [17],122.67 µg·days/mL
same,Tmax,[5]; [17],3.12 h
same,Bioavailability over IV (±SEM),"[5]; Group 5: IV control, data from Example 5",100
same,Tmax,"[5]; Group 5: IV, 40 mg, N=3, plasma",3.12 h
"dulaglutide: long-acting GLP-1 receptor agonist, GLP-1 analogue linked to modified human IgG4 Fc, about 63 kDa",Bioavailability relative to IV,[6],26.51%
same,Bioavailability relative to SC,[6],49.11%
same,plasma level in one animal in Group 1 (no. 8487; ID),[6],below the limit of detection
same,(AUC)T0-T240 h ± SEM,[6]; 1.2 mg,4355.86 ng·h/mL
same,AUCID (mean ± SEM),[6]; 1.2 mg,3890.00 ± 94.73 ng·h/mL
same,Cmax,[6]; 1.2 mg,70.65 ng
same,Tmax,[6]; 1.2 mg,8 h
same,Bioavailability relative to IV,[6]; iv,100%
same,(AUC)T0-T240 h ± SEM,"[6]; iv, 1.2 mg",16429.33 ng·h/mL
same,Cmax,"[6]; iv, 1.2 mg",632.93 ng
same,Tmax,"[6]; iv, 1.2 mg",1 h
same,Bioavailability relative to SC,[6]; sc,100%
same,(AUC)T0-T240 h ± SEM,"[6]; sc, 1.2 mg",8869 ng·h/mL
same,Cmax,"[6]; sc, 1.2 mg",141.3 ng
same,Tmax,"[6]; sc, 1.2 mg",6 h
